Values quoted from earlier work as cited in paper PMC2726620 (Journal of medicinal chemistry, 2008).
Non-standard residues stand in square brackets, D forms with d. Residues, ends and D or L forms follow the SMILES beside them. No end group written: not given here. *: point of attachment. Fmoc = O=C(OCC1c2ccccc2-c2ccccc21)*; NMePhg = CN[C@H](C(=O)O)c1ccccc1; Cha = N[C@@H](CC1CCCCC1)C(=O)O

Experiments:
[1] = target: mR1 dimer; conditions: read-out: Ki for mR1 dimer; from directed minilibrary screening studies
[2] = target: T1, ScRR (Saccharomyces cerevisiae, UniProt P21524); conditions: read-out: IC50, ScRR; footnote *: IC50 values were reported in [30]
T1 sequence (P21524 1-888): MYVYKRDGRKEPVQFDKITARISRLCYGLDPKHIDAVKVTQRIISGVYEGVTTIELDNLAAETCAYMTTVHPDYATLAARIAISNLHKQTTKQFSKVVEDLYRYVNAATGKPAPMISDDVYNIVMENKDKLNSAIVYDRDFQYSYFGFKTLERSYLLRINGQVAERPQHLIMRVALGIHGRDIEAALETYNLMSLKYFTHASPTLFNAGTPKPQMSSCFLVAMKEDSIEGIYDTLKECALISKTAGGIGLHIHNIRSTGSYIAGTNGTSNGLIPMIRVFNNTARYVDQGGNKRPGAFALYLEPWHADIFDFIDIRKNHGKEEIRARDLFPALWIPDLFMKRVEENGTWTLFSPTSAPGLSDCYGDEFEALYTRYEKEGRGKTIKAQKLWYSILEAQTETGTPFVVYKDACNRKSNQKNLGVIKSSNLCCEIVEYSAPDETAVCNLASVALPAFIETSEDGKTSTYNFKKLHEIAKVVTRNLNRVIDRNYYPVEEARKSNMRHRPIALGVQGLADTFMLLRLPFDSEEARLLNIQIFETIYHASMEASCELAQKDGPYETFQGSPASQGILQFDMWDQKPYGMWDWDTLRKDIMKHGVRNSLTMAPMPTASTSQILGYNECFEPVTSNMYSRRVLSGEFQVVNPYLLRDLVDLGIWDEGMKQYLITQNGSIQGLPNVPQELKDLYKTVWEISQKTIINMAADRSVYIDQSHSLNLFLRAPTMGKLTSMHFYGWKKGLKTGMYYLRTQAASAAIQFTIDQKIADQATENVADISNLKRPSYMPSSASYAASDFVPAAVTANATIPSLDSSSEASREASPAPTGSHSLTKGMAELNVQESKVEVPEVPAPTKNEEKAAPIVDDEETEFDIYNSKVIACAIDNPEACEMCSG

[3] = target: EcR2 octapeptide C-terminal octapeptide (Escherichia coli) (UniProt P69924)
[4] = target: EcR2 20-mer peptide C-terminal 20-mer (Escherichia coli) (UniProt P69924)
Sequence of EcR2 20-mer peptide C-terminal 20-mer (Escherichia coli) (P69924 357-376): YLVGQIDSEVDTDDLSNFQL

Sequence of EcR2 octapeptide C-terminal octapeptide (Escherichia coli) (P69924 whole entry, looked up): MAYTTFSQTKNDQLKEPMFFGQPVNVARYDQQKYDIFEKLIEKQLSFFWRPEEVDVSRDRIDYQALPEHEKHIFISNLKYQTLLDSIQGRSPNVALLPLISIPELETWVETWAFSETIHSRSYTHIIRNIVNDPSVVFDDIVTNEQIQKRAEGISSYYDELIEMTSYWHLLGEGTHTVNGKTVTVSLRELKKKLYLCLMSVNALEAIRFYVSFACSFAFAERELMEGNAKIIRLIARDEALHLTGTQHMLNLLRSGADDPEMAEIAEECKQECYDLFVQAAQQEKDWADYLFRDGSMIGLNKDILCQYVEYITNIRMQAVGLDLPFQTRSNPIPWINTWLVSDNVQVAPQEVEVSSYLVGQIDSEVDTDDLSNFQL

In the case of `CC(C)C[C@H](NC(=O)[C@H](c1ccccc1)N(C)C(=O)OCC1c2ccccc2-c2ccccc21)C(=O)N[C@@H](CC(=O)O)C(=O)N[C@@H](CC1CCCCC1)C(=O)N[C@@H](CC(=O)O)C(=O)N[C@@H](Cc1ccccc1)C(=O)O` [P6, ^1Fmoc(Me)PhgLDChaDF^7] (Fmoc-[NMePhg]LD[Cha]DF-OH; C-terminus assumed), the Ki [1] is given as 0.31 µM.
In the case of “^1FTFNEDF^7 (not fully specified; printed as 1FTFNEDF7) [ScR2]”, the IC50 [2] is given as 44 µM.
For “^2NFDDDF^7 (not fully specified; printed as 2NFDDDF7) [ScR4]”, the IC50 [2] is given as 30 µM.
For “ribonucleotide reductase R1 (EcR1) (from UniProt P00452)”, the Ki [3] is given as 370 µM and the Ki [4] is given as 20 µM.
